# From paper PMC7318136
# B1: PsbO-β (β-barrel construct of photosystem II manganese-stabilizing protein PsbO) (Thermosynechococcus elongatus; deletion of 1-15; deletion of 55-63 (replaced … (protein)
# chain: MNHKCPTLDDTARGAYPIDSSQTYRIARLCLQPTTFLVKENGEFVPTKLVTRETTSLDQIQGELKVNSDGSLTFVEEDGIDFQPVTVQMAGGERIPLLFTVKNLVASTQPNVTSITTSTDFKGEFNVNGTKGQISLNVAKVDGRTGEIAGTFESEQLSNGHEVKIQGVFYASIEPA
# What was measured:
# Assay in all cases: NMR
# Details in all cases: 300 K; not stated; 20 mM sodium phosphate; phosphoric acid (20 %) added for lower pH, NaOH (1 M) for higher pH; samples dialysed overnight; folded isolated PsbO-β, 9-14 mg/mL, free of PSII partners
# [1] = target: Asp102 (UniProt position 128, …)
# [2] = target: Asp141 (UniProt position 167, …)
# [3] = target: Asp205 (UniProt position 231, …)
# [4] = target: Asp23 (UniProt position 49, …)
# [5] = target: Asp24 (UniProt position 50, …)
# [6] = target: Asp33 (UniProt position 59, …)
# [7] = target: Asp79 (UniProt position 105, …)
# [8] = target: Asp90 (UniProt position 116, …)
# [9] = target: Asp99 (UniProt position 125, …)
# [10] = target: Glu114 (UniProt position 140, …)
# [11] = target: Glu145 (UniProt position 171, …)
# [12] = target: Glu210 (UniProt position 236, …)
# [13] = target: Glu216 (UniProt position 242, …)
# [14] = target: Glu218 (UniProt position 244, …)
# [15] = target: Glu232 (UniProt position 258, …)
# [16] = target: Glu244 (UniProt position 270, FYASIEPA---)
# [17] = target: Glu54 (UniProt position 80, …)
# [18] = target: Glu64 (UniProt position 90, …)
# [19] = target: Glu74 (UniProt position 100, …)
# [20] = target: Glu84 (UniProt position 110, …)
# [21] = target: Glu98 (UniProt position 124, …)
protein,measurement,setting,value
B1,pKa,[1],>7
same,pKa,[2],4.89±0.03
same,pKa,[3],3.45±0.09
same,pKa,[4],3.41±0.05
same,pKa,[5],3.06±0.03
same,pKa,[6],3.47±0.05
same,pKa,[7],<2.5
same,pKa,[8],1.56±0.14
same,pKa,[9],<5
same,pKa,[10],3.81±0.08
same,pKa,[11],4.52±0.04
same,pKa,[12],2.66±0.12
same,pKa,[13],3.91±0.10
same,pKa,[14],5.13±0.07
same,pKa,[15],4.20±0.10
same,pKa,[16],4.97±0.08
same,pKa,[17],4.47±0.06
same,pKa,[18],4.17±0.04
same,pKa,[19],3.37±0.05
same,pKa,[20],4.64±0.07
same,pKa,[21],4.99±0.04
